Experimental data from patent US12325863B2, “MDA-7/IL-24 secretory variants and methods of use” (Virginia Commonwealth University, priority 2018, dated 2025).

B1: MDA-7/IL-24: Melanoma differentiation associated gene-7/Interleukin-24, secreted protein of the IL-10 family (protein)
chain: QEFHFGPCQVKGVVPQKLWEAFWAVKDTMQAQDNITSARLLQQEVLQNVSDAESCYLVHTLLEFYLKTVFKNYHNRTVEVRTLKSFSTLANNFVLIVSQLQPSQENEMFSIRDSAHRRFLLFRRAFKQLDVEAALTKALGEVDILLTWMQKFYKL

How the values were obtained:
[1] = Sabutoclax and BI-97D6 in combination with MDA-7/IL-24; details: combined with MDA-7/IL-24; earlier observation referred to
Procedure: To test a multi-target approach for treatment of prostate cancer bone metastases, experiments were conducted to target Mcl-1 inhibition and investigate the effects on NG-mda-7/IL-24 efficacy. […] In addition to these inhibitors, three commercially available targeted inhibitors were evaluated to determine potential synergistic effects with MDA-7/IL-24. […] Next, the therapeutic effect of MDA-7/IL-24 protein in combination with BI-97D6 was tested, in male athymic nude mice injected by the intracardiac route with human prostate cancer PC3-ML cells, resulting in bone metastases.

CD11b+Gr-1+ MDSCs = details: single administration 5 mg/kg or 20 mg/kg i.p., 24 hours, spleen; FIG. 33
Procedure: 24 hrs. later, splenic CD11b+Gr-1+ MDSCs were assessed by FACS.
Twenty-four (24) hours later, splenic CD11b^+Gr-1^+ MDSCs were assessed by FACS.

breast cancer cells = assay: ER stress response and surface calreticulin in breast cancer cells; assay type: cell-based, mouse
Text: FIGS. 41A-41C show example images illustrating that MDA-7/IL-24 therapy enhances immunogenicity of mouse mammary tumors. FIG. 41A: immunogenic BCa cell death induced by MDA-7/IL-24 therapy. BALB/c mice were immunized with irradiated, Ad.mda-7 (1,2) or Ad.null (3,4) infected 4T1 cells (MOI=1), challenged with live 4T1 cells. The images were taken two weeks' post-tumor challenge. […] FIG. 41C: MDA-7/IL-24 therapy triggers the surface presence of CRT, assessed by immunofluorescence staining (left) and immunoblotting analysis of plasma membrane or cytosolic fractions (right).
Immunogenic breast cancer cell death was induced by MDA-7/IL-24 therapy. BALB/c mice were immunized with irradiated, Ad.mda-7 (mouse 1 and 2) or Ad.null (mouse 3 and 4) infected 4T1 cells (MOI=1), and then challenged with live 4T1 cells. The images were taken two weeks' post-tumor challenge.

[2] = system: IFN-γ-producing CD8+ T cells; assay: IFN-γ-producing CD8+ T cells in lymph nodes after i.v. protein; assay type: in vivo, C57BL/6 mice; details: 10 μg i.v., 48 hours, lymph node cells; FIG. 31B
Procedure: (§1) FIGS. 31A-31B show example results illustrating that MDA-7/IL-24 promotes T cell expansion and activation. FIG. 31A: CD8+ T cells were stimulated with anti-CD3/CD28 antibodies in the presence or absence of purified MDA-7/IL-24 protein (20 ng/ml). Cell proliferation was measured using ^3H-thymidine (TdR) incorporation assays. p<0.05. FIG. 31B: C57BL/6 mice were injected i.v. with MDA-7/IL-24 protein (10 μg) or PBS. 48 h later, lymph node cells were assessed for IFN-γ-producing CD8+ T cells by intracellular staining.
(§2) In subsequent experiments, CD8^+ T cells were stimulated with anti-CD3/CD28 antibodies in the presence or absence of purified MDA-7/IL-24 protein (20 ng/ml). Cell proliferation was measured using ^3H-thymidine (TdR) incorporation assays. p<0.05. […] C57BL/6 mice were injected intravenously with MDA-7/IL-24 protein (10 μg) or PBS; 48 hours later, lymph node cells were assessed for IFN-γ-producing CD8^+ T cells by intracellular staining.

CD8+ T cells = assay: 3H-thymidine incorporation in stimulated CD8+ T cells; assay type: cell-based; details: anti-CD3/CD28 stimulation, 20 ng/ml, p<0.05; FIG. 31A
Procedure: as §1, §2

[3] = system: prostate cancer bone metastases (RMI-Luc cells); assay: RM1-Luc bone metastases, OT-I T cells with or without MDA-7/IL-24 protein; assay type: in vivo, C57BL/6 mice; details: OT-I in combination with protein i.v. 5 mg/kg body weight, 3 times; FIG. 29
Procedure: (§3) C57BL/6 mice established with experimental bone metastases via intratibial injection of ovalbumin-positive CaP RM1-Luc cells expressing luciferase were treated with OVA-specific T cells (OT-I) alone or in combination with recombinant MDA-7/IL-24 protein i.v. (5 mg/kg body weight, 3 times). Development of bone lesions was monitored by BLI. Luciferase intensity was quantified and is presented graphically.
as §3, with “intra-tibial” for “intratibial”, “prostate cancer RMI-Luc” for “CaP RM1-Luc”, “intravenously” for “i.v.”, “bioluminescent imaging (BLI) (FIG. 29 left panel).” for “BLI.”, “graphically (FIG. 29 graph).” for “graphically.”

[4] = system: human prostate cancer PC3-ML cells; assay: PC3-ML intracardiac bone metastasis model in athymic nude mice; assay type: in vivo; details: single agent, versus control group
Procedure: To test a multi-target approach for treatment of prostate cancer bone metastases, experiments were conducted to target Mcl-1 inhibition and investigate the effects on NG-mda-7/IL-24 efficacy. Using NMR (nuclear magnetic resonance) and computational biology, two Mcl-1 inhibitors were identified (Sabutoclax and BI-97D6) and their activity was validated in immune competent mice in combination with MDA-7/IL-24. In addition to these inhibitors, three commercially available targeted inhibitors were evaluated to determine potential synergistic effects with MDA-7/IL-24. The three inhibitors were UMI-77 (showing selectivity to Mcl-1 over other members of the Bcl-2 family), Marinopyrrole A (selective inhibitor of Mcl-1), and A-1210477. […] Mcl-1 expression was elevated by 1.7-fold in RM1-BM (RM1-BM cells selected for enhanced metastasis to bone) as compared to RM1 cells, indicating functional relevance of Mcl-1 in this metastatic process. […] This further supported the cancer-specificity of specific Mcl-1 inhibitors. Next, the therapeutic effect of MDA-7/IL-24 protein in combination with BI-97D6 was tested, in male athymic nude mice injected by the intracardiac route with human prostate cancer PC3-ML cells, resulting in bone metastases.

| Molecule | antitumor synergy [1] | frequency of CD11b+Gr-1+ MDSCs (CD11b+Gr-1+ MDSCs) | surface calreticulin (immunofluorescence, immunoblotting) (breast cancer cells; FIG. 41C) | ER stress response (breast cancer cells; GRP78/BiP, GRP170, FIG. 41B) | frequency of IFN-γ-expressing CD8+ T cells [2] | T cell proliferation (3H-thymidine incorporation) (CD8+ T cells) | therapeutic potency of ATT on bone metastases (BLI) [3] | bone metastases [4] |
| --- | --- | --- | --- | --- | --- | --- | --- | --- |
| Cc1cc2c(C(=O)NC[C@H](C)c3ccccc3)c(O)c(O)cc2c(O)c1-c1c(C)cc2c(C(=O)NC[C@H](C)c3ccccc3)c(O)c(O)cc2c1O [BI-97C1, Sabutoclax] | antitumor synergy | substantially reduced the frequency of CD11b^+Gr-1^+ MDSCs | – | – | – | – | – | – |
| B1 | – | – | triggers the surface presence of calreticulin (CRT) | upregulation of ER-resident chaperones | increased the frequency of IFN-γ-expressing CD8^+ T cells | significantly enhanced the proliferation of T cells | significantly enhanced the therapeutic potency of ATT | statistically significant inhibition of bone metastases |
